Assay results published in patent publication US11608374 (dated 2023).
Residue numbers refer to the chain shown, from its start.

T1: cynomolgus sclerostin (cynomolgus monkey)
T1 chain: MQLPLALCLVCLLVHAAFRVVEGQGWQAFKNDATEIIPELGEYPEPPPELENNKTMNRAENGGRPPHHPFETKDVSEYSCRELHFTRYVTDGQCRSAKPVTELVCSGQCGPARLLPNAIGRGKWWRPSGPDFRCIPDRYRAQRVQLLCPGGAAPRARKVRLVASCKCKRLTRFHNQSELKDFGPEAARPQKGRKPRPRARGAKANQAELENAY

T2: human sclerostin (human)
T2 chain: T1 chain with A16T, Q93P, A152E, P184T, G201S

T3: mouse sclerostin (mouse)
T3 chain: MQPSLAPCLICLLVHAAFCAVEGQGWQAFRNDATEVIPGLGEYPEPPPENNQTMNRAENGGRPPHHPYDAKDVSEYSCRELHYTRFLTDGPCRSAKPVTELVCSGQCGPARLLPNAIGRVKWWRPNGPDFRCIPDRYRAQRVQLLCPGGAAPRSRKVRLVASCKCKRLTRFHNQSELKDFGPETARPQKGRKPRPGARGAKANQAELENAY

T4: rat sclerostin (rat)
T4 chain: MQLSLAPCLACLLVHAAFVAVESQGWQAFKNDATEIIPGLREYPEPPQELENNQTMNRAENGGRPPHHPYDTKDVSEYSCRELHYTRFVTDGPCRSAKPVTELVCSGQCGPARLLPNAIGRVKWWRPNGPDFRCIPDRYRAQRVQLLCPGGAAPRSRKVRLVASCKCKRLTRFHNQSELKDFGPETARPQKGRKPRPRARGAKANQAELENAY

B1: amH852/abL152 (antibody, V domains shown)
VH: EVQLVQSGAEVKKPGASVKVSCKASGYTFTDYNMHWVRQAPGKGLEWMGEIMPHSGRYGLKQKFKGRVTMTTDTSTSTAYMELRSLRSDDTAVYYCARLEYSEIYDDWYFDVWGQGTTVTVSS
VL: DIQMTQSPSSLSASVGDRVTITCRASEGIHDALAWYQQKPGKAPKLLIYWASTLESGVPSRFSGSGSGTDFTLTISSLQPEDFATYYCQQGDTLPYTFGGGTKVEIK
B2: amH852/bsH638/abL152 (antibody)
chain 1: B1 VH
chain 2: B1 VL
chain 3: QVQLVQSGAEVKKPGASVKVSCKVSGYTLTHTFMHWVRQAPGKGLEWMGWSDPEIGDHEYASKFQGRVTMTEDTSTDTAYMELSSLRSEDTAVYYCATGDTTYKFDYWGQGTLVTVSS
chain 4: B1 VL
B3: amH848/bsH656/abL152 (antibody)
chain 1: B1 VH with D31S, T72R, T76I, R84S, S85R
chain 2: B1 VL
chain 3: B2 chain 3 with H58T
chain 4: B1 VL
B4: amH848/bsH638/abL152 (antibody)
chain 1: B1 VH with D31S, T72R, T76I, R84S, S85R
chain 2: B1 VL
chain 3: B2 chain 3
chain 4: B1 VL
B5: mabA (antibody, V domains shown)
VH: B1 VH with K43Q, M52N, H54N, R57G, Y58A, L60Y, K61N, E100G, S102D, E103D
VL: B1 VL with E27Q, G28D, H30S, D31N, A32Y, A34N, W50Y, A51T, T53R, E55L
B6: mabA_NpH1 (antibody, V domains shown)
VH: EVQLVQSGAEVKKPGASVKVSCKASGYTFTDYNMHWVRQAPGQGLEWMGEINPNSGGAGYNQKFKGRVTMTTDTSTSTAYMELRSLRSDDTAVYYCARLGYDDIYDDWYFHVWGQGTTVTVSS
VL: B1 VL with E27Q, G28D, H30S, D31N, A32Y, A34N, W50H, A51T, T53R, E55L
B7: mabA_NpH2 (antibody, V domains shown)
VH: B6 VH with H111D
VL: B1 VL with E27Q, G28D, H30S, D31N, A32Y, A34N, W50H, A51T, T53R, E55L
B8: mabA_pH1 (antibody, V domains shown)
VH: B6 VH with G57H, G100H, H111D
VL: B1 VL with E27H, G28D, H30S, D31N, A32Y, A34N, W50Y, A51T, T53R, E55L
B9: mabA_pH2 (antibody, V domains shown)
VH: B6 VH with G57H, G100H, D103H, H111D
VL: B1 VL with E27H, G28D, H30S, D31N, A32Y, A34N, W50Y, A51T, T53R, E55L
B10: mabA_pH3 (antibody, V domains shown)
VH: B6 VH with N54H, G57H, G100H, Y105H, H111D
VL: B1 VL with E27H, G28D, H30S, D31N, A32Y, A34N, W50Y, A51T, T53R, E55L

Biological target: T1, cynomolgus sclerostin
Experiment: SPR, pH 7.4

| koff [s⁻¹] | Binder |
| --- | --- |
| 0.0019 | B1 |
| 0.000387 | B2 |
| 0.000606 | B3 |
| 0.000606 | B4 |

Biological target: T2, human sclerostin
Experiment: SPR, pH 7.4

| koff [s⁻¹] | Binder |
| --- | --- |
| 0.00257 | B1 |
| 0.000418 | B2 |
| 0.000515 | B3 |
| 0.000596 | B4 |

Biological target: T1, cynomolgus sclerostin
Experiment: SPR, pH 5.8, 37C

| Kd [pM] | Binder |
| --- | --- |
| 1400 | B5 |
| 459 | B6 |
| 627 | B7 |

Biological target: T2, human sclerostin
Experiment: SPR, pH 5.8, 37C

| Kd [pM] | Binder |
| --- | --- |
| 1440 | B5 |
| 435 | B6 |
| 690 | B7 |

Biological target: T1, cynomolgus sclerostin
Experiment: SPR, pH 7.4, 37C

| Kd [pM] | Binder |
| --- | --- |
| 202 | B8 |
| 252 | B9 |
| 75.3 | B5 |
| 189 | B6 |
| 280 | B7 |

Biological target: T3, mouse sclerostin
Experiment: SPR, pH 5.8, 37C

| Kd [pM] | Binder |
| --- | --- |
| 5210 | B8 |
| 5430 | B9 |
| 503 | B6 |
| 0.0168 | B7 |
| 1050 | B10 |

Biological target: T4, rat sclerostin
Experiment: SPR, pH 5.8, 37C

| Kd [pM] | Binder |
| --- | --- |
| 4200 | B8 |
| 4450 | B9 |
| 0.00307 | B5 |
| 292 | B6 |
| 0.0736 | B7 |

Biological target: T2, human sclerostin
Experiment: SPR, pH 7.4, 37C

| Kd [pM] | Binder |
| --- | --- |
| 213 | B8 |
| 258 | B9 |
| 80 | B5 |
| 193 | B6 |
| 323 | B7 |

Biological target: T3, mouse sclerostin
Experiment: SPR, pH 7.4, 37C

| Kd [pM] | Binder |
| --- | --- |
| 63.2 | B8 |
| 80.7 | B9 |
| 0.00302 | B5 |
| 204 | B6 |
| 5.57 | B7 |
| 287 | B10 |

Biological target: T4, rat sclerostin
Experiment: SPR, pH 7.4, 37C

| Kd [pM] | Binder |
| --- | --- |
| 25.2 | B8 |
| 31.2 | B9 |
| 0.0938 | B5 |
| 82.6 | B6 |
| 6.61 | B7 |
| 184 | B10 |

Biological target: T1, cynomolgus sclerostin
Experiment: SPR, pH 7.4 to 5.8

| koff [s⁻¹] | Binder |
| --- | --- |
| 0.107 | B1 |
| 0.0598 | B2 |
| 0.374 | B3 |
| 0.227 | B4 |

Biological target: T2, human sclerostin
Experiment: SPR, pH 7.4 to 5.8

| koff [s⁻¹] | Binder |
| --- | --- |
| 0.0882 | B1 |
| 0.028 | B2 |
| 0.222 | B3 |
| 0.1 | B4 |

Biological target: T4, rat sclerostin
Experiment: SPR, pH 7.4 to 5.8, 37C

| koff [s⁻¹] | Binder |
| --- | --- |
| 0.0182 | B10 |

Biological target: T1, cynomolgus sclerostin
Experiment: SPR, pH 7.4 to 5.8, 37C

| koff [s⁻¹] | Binder |
| --- | --- |
| 0.0156 | B8 |
| 0.0165 | B9 |

Biological target: T2, human sclerostin
Experiment: SPR, pH 7.4 to 5.8, 37C

| koff [s⁻¹] | Binder |
| --- | --- |
| 0.0131 | B8 |
| 0.0139 | B9 |
